Holding throughout (assay): BLI (Octet HTX)
For orientation: Biolayer interferometry detects binding as a change in optical thickness at a sensor tip.

The target of test [1] is T1, Recombinant Human DLL3 Protein (amino acids Ala27-Ala479, cat #9749-DL, R&D Systems) (UniProt Q9NYJ7 27-479).
T1 chain: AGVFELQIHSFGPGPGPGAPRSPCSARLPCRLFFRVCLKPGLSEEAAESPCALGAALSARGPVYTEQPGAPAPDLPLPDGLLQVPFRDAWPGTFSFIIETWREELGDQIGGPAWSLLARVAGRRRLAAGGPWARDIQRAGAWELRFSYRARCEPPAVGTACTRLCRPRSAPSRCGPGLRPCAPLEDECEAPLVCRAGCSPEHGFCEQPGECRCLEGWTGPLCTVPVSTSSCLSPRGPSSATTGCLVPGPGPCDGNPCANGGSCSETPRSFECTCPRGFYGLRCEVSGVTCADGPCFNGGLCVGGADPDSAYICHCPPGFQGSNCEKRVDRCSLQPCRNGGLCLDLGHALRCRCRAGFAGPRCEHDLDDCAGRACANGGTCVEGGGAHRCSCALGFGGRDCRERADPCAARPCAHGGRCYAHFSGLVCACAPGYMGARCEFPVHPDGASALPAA

The target in test [2] is T1, Recombinant Human DLL3 Protein (amino …).
Test [3] shares this target.

Read-outs that look alike come from different tables or passages of the source.

The term Kd denotes the constant that tells how readily two partners part at equilibrium.

B1: 7-I1-B (antibody, V domains shown)
VH: EVQLVESGGGLVKPGGSLRLSCAASGFTFSNTWMSWVRQAPGKGLEWVGRIKSKSDGGTTDYAAPVKGRFTISRDDSKNTLYLQMNSLKTEDTAVYYCTQYYWNSFDYWGQGTLVTVSS
VL: not shown
Take B1: the Kd in test [1] came out at 0.686 nM; in test [2], 0.68 nM.

B2: 2-C8-A (antibody, V domains shown)
VH: EVQLVESGGGLVQPGGSQRLSCAASGFTFSSYWMNWVRQAPGKGLEWVANIKEDGSEKYYVDSVKGRFTISRDNAKNSLYLQMNSLRAEDTAVYYCARDPGWAPFDYWGQGTLVTVSS
VL: DIQMSQSPSSLSASVGDRVTITCRASQGISNYLAWFQQKPGKAPKSLIYAASSLQSGVPSKFSGSGSGTDFTLAISSLQPEDFATYYCQQYNSFPYTFGQGTTLEIK
Consider B2, for which the Kd in test [3] and in test [2] was 0.668 nM throughout.

B3: 6-G23-F (antibody, V domains shown)
VH: QVQLVQSGAEVKKPGASVKVSCKASGYTFTSYYIHWVRQAPGQGLEWMGIIDPSDGSTNYAQKFQGRVTMTRDTSTSTVYMELSSLRSEDTAVYYCARDREYNYYGLDVWGQGTTVTVSS
VL: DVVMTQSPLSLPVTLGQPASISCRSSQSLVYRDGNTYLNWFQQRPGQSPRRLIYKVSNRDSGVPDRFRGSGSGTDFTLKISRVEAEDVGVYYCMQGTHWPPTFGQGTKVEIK
In the case of B3, the Kd in test [1] and in test [2] was 0.16 nM each time.

B4: 10-O18-A (antibody, V domains shown)
VH: QVQLQESGPGLVKPSETLSLTCTVSGGSINSYYWSWIRQPPGKGLEWIGYIFYSGITNYNPSLKSRVTISLDTSKNQFSLKLSSVTAADTAVYYCARIGVAGFYFDYWGQGTLVTVSS
VL: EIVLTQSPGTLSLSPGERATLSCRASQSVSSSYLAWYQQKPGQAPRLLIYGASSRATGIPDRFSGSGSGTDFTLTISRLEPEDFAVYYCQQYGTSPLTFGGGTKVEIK
With B4, the Kd in test [3] worked out at 0.602 nM; in test [2], 0.62 nM.
